Experimental data reported in patent publication US20060269538A1.

How the values were obtained:
[1] = target: variant D (trypsin mutant of SEQ ID NO:5) (human); assay: cell-based or functional assay; details: scale: % of the serum concentration of anti-plasmin
[2] = target: variant E (trypsin mutant of SEQ ID NO:5) (human); assay: cell-based or functional assay; details: scale: % of the serum concentration of anti-plasmin
Sequence of variant E (trypsin mutant of SEQ ID NO:5) (human) (chain, as listed by the source mutant): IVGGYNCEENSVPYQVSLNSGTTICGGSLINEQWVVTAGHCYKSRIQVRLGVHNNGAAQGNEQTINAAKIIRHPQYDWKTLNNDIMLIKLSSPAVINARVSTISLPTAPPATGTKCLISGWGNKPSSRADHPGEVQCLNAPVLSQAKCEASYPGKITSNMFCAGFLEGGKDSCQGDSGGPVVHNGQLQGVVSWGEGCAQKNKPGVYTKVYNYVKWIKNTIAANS

Sequence of variant D (trypsin mutant of SEQ ID NO:5) (human) (chain, as listed by the source mutant limits assumed): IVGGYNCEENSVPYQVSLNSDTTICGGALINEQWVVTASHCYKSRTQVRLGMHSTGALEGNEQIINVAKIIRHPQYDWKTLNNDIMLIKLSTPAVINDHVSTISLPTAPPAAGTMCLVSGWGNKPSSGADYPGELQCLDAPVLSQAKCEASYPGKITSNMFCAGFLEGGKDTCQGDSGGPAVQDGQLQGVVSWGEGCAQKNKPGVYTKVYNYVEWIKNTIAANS

IC50 (inhibitor concentration at 50% residual proteolytic activity; cleavage of fluorescently labelled TNF-alpha) [1]: 5
IC50 (inhibitor concentration at 50% residual proteolytic activity; cleavage of fluorescently labelled TNF-alpha) [2]: 40
Substance: antiplasmin (from UniProt P08697 40-491)
